Assay results taken from patent US5981720A, “Human salivary proteins and fragments thereof having alpha-glucosidase inhibitory activity” (priority 1997, dated 1999).
Residues, ends and D or L forms follow the SMILES beside them. No end group written: not given here. *: point of attachment. NH(β-GlcNAc) = CC(=O)N[C@@H]1[C@@H](O)[C@H](O)[C@@H](CO)O[C@H]1N*; acetylglucosamine = N-acetylglucosamine

Molecular target: yeast alpha-glucosidase (Saccharomyces cerevisiae, UniProt P53341)
Assay type: biochemical
Method: The enzyme of alpha-glucosidase activity is according to the procedure as described by Sigma Chemical Company, St. Louis, Mo. Routinely, the enzyme reaction mixture contains 10 mM maltose and 50 ul of purified alpha-glucosidase or 0.02 units of yeast alpha-glucosidase in a final volume of 60 ul of 25 mM sodium acetate buffer, pH 5.6. The reaction mixture is incubated at 37° C. for 60 minutes, and the production of glucose is determined by the glucose oxidase reagent (Worthington Statzyme Glucose 500) in accordance with recommendation of Worthington Biochemical Corporation.

Chain of yeast alpha-glucosidase (P53341 whole entry): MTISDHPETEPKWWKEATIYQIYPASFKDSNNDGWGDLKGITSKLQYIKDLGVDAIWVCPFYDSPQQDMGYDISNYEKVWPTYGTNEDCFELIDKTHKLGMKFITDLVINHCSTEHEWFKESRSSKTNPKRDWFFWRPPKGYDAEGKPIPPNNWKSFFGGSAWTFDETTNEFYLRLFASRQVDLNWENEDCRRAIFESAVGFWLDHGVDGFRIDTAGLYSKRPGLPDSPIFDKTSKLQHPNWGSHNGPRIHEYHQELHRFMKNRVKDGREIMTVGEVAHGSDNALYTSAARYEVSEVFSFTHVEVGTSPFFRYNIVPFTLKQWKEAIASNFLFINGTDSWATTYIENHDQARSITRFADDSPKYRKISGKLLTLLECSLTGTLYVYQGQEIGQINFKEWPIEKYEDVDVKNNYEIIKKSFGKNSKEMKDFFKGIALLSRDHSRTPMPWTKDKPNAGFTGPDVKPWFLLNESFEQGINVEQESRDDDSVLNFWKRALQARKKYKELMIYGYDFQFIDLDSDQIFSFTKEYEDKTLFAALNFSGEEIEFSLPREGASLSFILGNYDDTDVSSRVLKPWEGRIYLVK

With `CC(=O)N[C@@H]1[C@@H](O)[C@H](O)[C@@H](CO)O[C@H]1NC(=O)C[C@H](NC(=O)CNC(=O)CN)C(=O)N[C@@H](CCCCN)C(=O)O` [synthetic glycopeptide, Gylcyl-glycl-(NB-2-(acetylamino)-deoxy-2-B-pyranosyl)-asparaginyl-lysine] (H-GGD(NH(β-GlcNAc))K-OH) the “inhibitory effect on the alpha-glucosidase activity” value (10 ug of peptide, 50 mM acetate buffer pH 5.6, compared to control) was “about 90%”.
For “acetoacetate glycopeptide complex: reaction product of the putative glycopeptide with acetoacetate reagent (GGN(acetylglucosamine)K; also: reacted with acetoacetate reagent (glycine residue))”, the “inhibitory effect on alpha-glucosidase activity (in words)” value (0.02 units of yeast alpha-glucosidase) was “loss of inhibitory effect of the glycopeptide itself but is able to stimulate the alpha-glucosidase activity”.
For “glycine-glycine-asparagine-pyridoxyl-lysine acetylglucosamine”, the “increase in inhibitory effect on alpha-glucosidase” value (glycopeptide preincubated with pyridoxal 5-phosphate versus unmodified glycopeptide) was 50%.
With “glycopeptide: bioactive fragment from Lys-C digestion of CON-1: glycine-glycine-asparagine-lysine, asparagine glycosylated by acetylglucosamine (GGN(acetylglucosamine)K)” the “inhibition of alpha-glucosidase lost after N-acetylglucosaminidase treatment” value (compared to the nontreated glycopeptide) was “about 20%” and the “change of inhibitory activity after removal of acetylglucosamine (in words)” value (incubation with N-acetylglucosaminidase) was “marked reduction in inhibitory activity”.
